Data from patent publication US20180134765A1.
One block for each binder: values may come before it.

Target: human NKG2D (Example 6 binding ELISA) (human) (UniProt P26718)
Assay: binding ELISA of the HER2 antibody heavy chain fusion on human NKG2D

human NKG2D (Example 6 binding ELISA) (human), sequence (P26718 78-216 limits assumed): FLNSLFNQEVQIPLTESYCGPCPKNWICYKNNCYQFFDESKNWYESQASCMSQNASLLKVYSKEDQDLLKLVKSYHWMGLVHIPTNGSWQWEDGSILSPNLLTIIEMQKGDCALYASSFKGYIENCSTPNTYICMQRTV

EC50 (read off the curve): 1 to 2 nM
B1: Her2-specific antibody heavy chain fusion to ULBP2 α1-α2 variant R80W (antibody, part only; not given: Anti-HER2 heavy and light chains, not shown: another chain or arm of the molecule; small tags and cut ends)
chain: AAEPHSLSYDITVIPKFRPGPRWCAVQGQVDEKTFLHYDCGNKTVTPVSPLGKKLNVTTAWKAQNPVLREVVDILTEQLWDIQLENYTPKEPLTLQARMSCEQKAEGHSSGSWQFSFDGQIFLLFDSEKRMWTTVHPGARKMKEKWENDKVVAMSFHYFSMGDCIGWLEDFLMGMDSTLEPSAGAP

EC50 (read off the curve): 0.4 nM
B2: Her2-specific antibody heavy chain fusion to ULBP3 α1-α2 variant R162G (antibody, part only; not given: Anti-HER2 heavy and light chains, not shown: another chain or arm of the molecule; small tags and cut ends)
chain: AAEPHSLWYNFTIIHLPRHGQQWCEVQSQVDQKNFLSYDCGSDKVLSMGHLEEQLYATDAWGKQLEMLREVGQRLRLELADTELEDFTPSGPLTLQVRMSCESEADGYIRGSWQFSFDGRKFLLFDSNNRKWTVVHAGARRMKEKWEKDSGLTTFFKMVSMGDCKSWLRDFLMHRKKRLEPTAP
